Laboratory results from patent publication US20260055369A1, “METHOD FOR GENERATING CELLS OF THE T CELL LINEAGE WITH ENGINEERING BROADLY REACTIVE HUMAN NOTCH LIGAND” (H. Lee Moffitt Cancer Center and Research Institute, Inc., priority 2022, published 2026).
Blank lines part the entries; values can stand above or below the molecule they belong to.

System: Notch1 (EGF6-13)
Test: SPR determination of equilibrium dissociation constants
Assay type: binding, human
Conditions: for off-rate from fitted SPR sensograms: series DLL4.v1, DLL4.v2, Delta^MAX, FIG. 2C Notch1 EGF6-13; for binding affinity compared to WT DLL4: stated for all four human Notch receptors (Notch1-4)
Description: Equilibrium dissociation constants were determined by surface plasmon resonance using a Biacore T200 instrument (GE Healthcare). Approximately 100 resonance units (RU) of biotinylated Notch extracellular fragments (Notch1 (EGF6-13), Notch2 (EGF6-13), Notch3 (EGF5-12), Notch4 (7-12), and mouse Notch1 (EGF6-13)) were immobilized on individual flow cells at 5 μl/min using a streptavidin-coated sensor chip (Series S Sensor chip SA, GE Healthcare). Three-fold serial dilutions of recombinant DLL4 proteins (N-EGF5) starting at 50 μM (WT DLL4), 18 μM (DLL4.v2), and 6 μM (DLL4.v1 and Delta^MAX) were flowed over the chip at 25° C. in SPR buffer (20 mM HEPES pH 7.4, 150 mM NaCl, 1 mM calcium chloride, 0.1% BSA supplemented with 0.005% surfactant P20). Association (“on-rate”) and dissociation (“off-rate”) phases were performed at 10 μl/min for 120 seconds and 300 seconds, respectively. The sensor chip was regenerated after each injection with 30-second washes of 2.25M Magnesium Chloride containing 25% Ethylene Glycol at 50 μL/min. Data collection rate was performed at 10 Hz, and curves were reference-subtracted from a flow cell containing 100 RU of a negative control non-related protein (biotinylated mouse RNF43 PA domain). The maximum RU for each experiment was normalized to a value of 100% and plotted as a function of concentration using Prism 9 software (GraphPad). Steady-state binding and kinetic curves were fitted using the Biacore T200 evaluation software to a 1:1 Langmuir model to determine the KD values.

Notch1 (EGF6-13), sequence (P46531 257-526 limits assumed): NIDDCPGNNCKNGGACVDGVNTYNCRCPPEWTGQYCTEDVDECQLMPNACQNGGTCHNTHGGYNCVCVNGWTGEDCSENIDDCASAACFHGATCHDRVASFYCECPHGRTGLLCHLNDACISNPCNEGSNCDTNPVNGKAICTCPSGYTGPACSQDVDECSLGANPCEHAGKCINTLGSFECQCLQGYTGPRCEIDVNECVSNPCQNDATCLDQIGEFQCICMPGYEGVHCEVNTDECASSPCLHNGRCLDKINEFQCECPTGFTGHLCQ

binding affinity compared to WT DLL4: enhanced affinity
B1: DLL4.v1: human DLL4 construct containing the five E12 mutations (Site 1+Site 2); sequence matches SEQ ID NO: 2 (protein)
chain: SSVFQLQLQEFINERGVLASGRPCEPGCRTFFRVCLKHFQAVVSPGPCTFGTVSTPVLGTNSFAVRDDSSGGGRNPLQLPLNFTWPGTFSLIIEAWHAPGDDLRPEALPPDALISKFAIQGSLAVGQNWLLDEQTSTLTRLRYSYRVICSDNYYGDNCSRLCKKRNDYFGHYVCQPDGNPSCLPGWTGEYCQQPICLSGCHEQNGYCSKPAECLCRPGWQGRLCNECIPHNGCRHGTCSTPWQCTCDEGWGGLFCDQDLNYCTHHSPCKNGATCSNSGQRSYTCTCRPGYTGVDCELELSECDSNPCRNGGSCKDQEDGYHCLCPPGYYGLHCEHSTLSCADSPCFNGGSCRERNQGANYACECPPNFTGSNCE
off-rate from fitted SPR sensograms: progressive decreases in off-rate

binding affinity compared to WT DLL4: enhanced affinity
B2: DLL4.v2: human DLL4 clone with five mutations N257P, T271L, F280Y, S301R, Q305P; matches SEQ ID NO: 5 (protein)
chain: SGVFQLQLQEFINERGVLASGRPCEPGCRTFFRVCLKHFQAVVSPGPCTFGTVSTPVLGTNSAVRDDSSGGGRNPLQLPFNFTWPGTFSLIIEAWHAPGDDLRPEALPPDALISKIAIQGSLAVGQNWLLDEQTSTLTRLRYSYRVICSDNYYGDNCSRLCKKRNDHFGHYVCQPDGNLSCLPGWTGEYCQQPICLSGCHEQNGYCSKPAECLCRPGWQGRLCNECIPHPGCRHGTCSTPWQCLCDEGWGGLYCDQDLNYCTHHSPCKNGATCRNSGPRSYTCTCRPGYTGVDCELELSECDSNPCRNGGSCKDQEDGYHCLCPPGYYGLHCEHSTLSCADSPCFNGGSCRERNQGANYACECPPNFTGSNCE
off-rate from fitted SPR sensograms: progressive decreases in off-rate
